Numbering of substitutions follows the chain as printed. Read-outs that look alike come from different tables or passages of the source.
Key:
SCAF8-CID [1] = molecular target: T1, SCAF8-CID (human, UniProt Q9UPN6 1-139); experiment: SPR
T1 sequence: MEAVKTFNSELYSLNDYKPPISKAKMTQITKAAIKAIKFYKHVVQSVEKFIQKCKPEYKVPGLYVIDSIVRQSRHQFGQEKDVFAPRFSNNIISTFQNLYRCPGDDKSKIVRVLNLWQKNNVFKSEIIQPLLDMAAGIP

SCAF4-CID [2] = molecular target: T2, SCAF4-CID (human, UniProt O95104 1-139); experiment: SPR
T2 sequence: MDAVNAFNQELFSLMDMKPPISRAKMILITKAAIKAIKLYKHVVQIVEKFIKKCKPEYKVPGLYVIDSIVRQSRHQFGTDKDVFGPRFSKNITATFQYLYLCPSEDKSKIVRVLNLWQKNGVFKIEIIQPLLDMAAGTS

SCAF4-CID R112A = molecular target: T3, SCAF4-CID R112A (human, UniProt O95104 1-139, R112A); experiment: fluorescence polarization
T3 sequence: T2 sequence with R112A

SCAF4-CID [3] = molecular target: T2, SCAF4-CID; experiment: fluorescence polarization
SCAF4-CID R71A = molecular target: T4, SCAF4-CID R71A (human, UniProt O95104 1-139, R71A); experiment: fluorescence polarization
T4 sequence: T2 sequence with R71A

SCAF4-CID R21A = molecular target: T5, SCAF4-CID R21A (human, UniProt O95104 1-139, R23A); experiment: fluorescence polarization
T5 sequence: T2 sequence with R23A

SCAF4-CID [4] = molecular target: T2, SCAF4-CID; experiment: competition FP
SCAF8-CID [5] = molecular target: T1, SCAF8-CID; experiment: competition FP
SCAF8-CID [6] = molecular target: T1, SCAF8-CID; experiment: competition FP; remark: listed apart in the source
SCAF4-CID [7] = molecular target: T2, SCAF4-CID; experiment: competition FP; remark: listed apart in the source
SCAF8-CID [8] = molecular target: T1, SCAF8-CID; experiment: SPR; remark: listed apart in the source
WDR5 [9] = molecular target: T6, WDR5 (UniProt P61964 22-334); experiment: SPR
WDR5 [10] = molecular target: T6, WDR5; experiment: competition FP
WDR5 L240K = WDR5 L240K (UniProt P61964 22-334, L240K); experiment: fluorescence polarization
WDR5 [11] = molecular target: T6, WDR5; experiment: fluorescence polarization

GTGGG (ssDNA) [SCAF4_LS (D2_5nt)]
Kd (SCAF8-CID [1]): 76.4 ± 7.33 nM
Kd (SCAF4-CID [2]): 140 ± 40.1 nM
Kd (SCAF4-CID R112A): 672 ± 171 nM
Kd (SCAF4-CID [3]): 189 ± 40.1 nM
Kd (SCAF4-CID R71A): 786 ± 491 nM
Kd (SCAF4-CID R21A): 416 ± 39.5 nM
IC50 (SCAF4-CID [4]): 2750 ± 682 nM
IC50 (SCAF8-CID [5]): 1960 ± 240 nM

GGGGTGGGGAG (ssDNA) [SRiApt-1 (SCAF4_F3_11nt)]
Kd (SCAF4-CID [2]): 58.4 ± 5.8 nM
IC50 (SCAF8-CID [6]): 1500 ± 690 nM
IC50 (SCAF4-CID [7]): 832 ± 303 nM
Kd (SCAF8-CID [8]): 56.3 ± 7.42 nM

CAGGTGGGTTC (ssDNA) [SRiApt-2 (F7_11nt_B)]
Kd (SCAF8-CID [1]): 90.5 ± 25.8 nM
Kd (SCAF4-CID [2]): 73.8 ± 30.8 nM
IC50 (SCAF8-CID [6]): 2690 ± 1430 nM
IC50 (SCAF4-CID [7]): 400 ± 143 nM

TTAAAGGGGTGGGGAGTCAT (ssDNA) [SRiApt-3]
Kd (SCAF8-CID [1]): 69.9 ± 14 nM
Kd (SCAF4-CID [2]): 22.7 ± 1 nM
IC50 (SCAF8-CID [6]): 291 ± 19.7 nM
IC50 (SCAF4-CID [7]): 285 ± 26.6 nM

GGGGGCTGGACCCCTCAACT (structured_DNA) [WMiApt-1]
Kd (WDR5 [9]): 138 ± 86.7 nM
IC50 (WDR5 [10]): 0.431 ± 0.134 µM
binding result (WDR5 L240K): binds
Kd (WDR5 [11]): 797 ± 95.2 nM

AGGTGGGT (ssDNA) [B2_8nt]
Kd (SCAF4-CID [2]): 297 ± 48.1 nM
IC50 (SCAF4-CID [7]): 1280 ± 742 nM

GGGTGGGA (ssDNA) [F1_8nt]
Kd (SCAF4-CID [2]): 88.6 ± 15.1 nM
IC50 (SCAF4-CID [7]): 554 ± 106 nM

GGACCGGACC (ssDNA) [bivalent WDR5 lead]
IC50 (WDR5 [10]): 8.5 ± 4.25 µM

TGGTGGGA (ssDNA) [D1_8nt]
IC50 (SCAF4-CID [7]): 1270 ± 864 nM
